According to article PMC6120557:

Target: chemokine receptor 4 (CXCR4), GFP‐tagged, on MDAMB231 X4 cells (human) (UniProt P61073)
Experiment: flow cytometry on cells

Chain of UniProt P61073 (P61073 whole entry): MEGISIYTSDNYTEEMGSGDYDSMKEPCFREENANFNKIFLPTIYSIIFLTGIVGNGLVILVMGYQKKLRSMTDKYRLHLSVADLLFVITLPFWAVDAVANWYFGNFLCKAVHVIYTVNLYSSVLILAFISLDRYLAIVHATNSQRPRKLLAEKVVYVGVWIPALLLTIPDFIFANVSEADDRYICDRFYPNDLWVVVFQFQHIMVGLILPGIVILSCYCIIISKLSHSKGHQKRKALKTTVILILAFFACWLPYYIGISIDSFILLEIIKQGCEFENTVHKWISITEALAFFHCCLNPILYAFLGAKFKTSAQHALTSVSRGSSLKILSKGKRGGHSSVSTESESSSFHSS

Row | Kd | Substance
1 | > 500 nM | Cy5‐S‐S‐Cy3‐AcTZ14011 (peptide)
2 | 222 nM | N3‐Cy5‐AcTZ14011 (peptide)
